Laboratory results as given in the RNAGym collection of RNA variant scans (doi:10.7554/elife.80360).

B1: Hammerhead Ribozyme (parent)
chain: ACCGGAUGUGCUUUCCGGUCUGAUGAGUCCGUGAGGACGAAACAG

Variants of: B1
Assay: self-cleavage, relative activity (ratio to wild type); higher = more cleavage; co-transcriptional

Variant | self-cleavage
U19G C29A | 0.257
U19G C29U | 0.316
U19G A40G | 0.384
U19G A40U | 0.323
U19G A40C | 0.294
G18U U19C | 0.487
G18U U19G | 0.291
G18U U19A | 0.34
U19C G22C | 0.323
U19C G22U | 0.267
U19C G22A | 0.282
U19A A34C | 0.32
U19A A34U | 0.388
U19A A34G | 0.36
U19C U24A | 0.776
U19C U24G | 0.552
U19C U24C | 0.682
U19A A41C | 0.391
U19A A41U | 0.308
U19A A41G | 0.312
U19A G39C | 0.329
U19A G39A | 0.297
U19A G39U | 0.29
U19G | 0.437

Variant | self-cleavage
U19A | 0.391
U19C | 0.737
U19C A41C | 0.429
U19C A41G | 0.228
U19C A41U | 0.271
U19C G31U | 0.789
U19C G31A | 0.967
U19C G31C | 0.657
G18U U24G | 0.607
G18U U24A | 0.858
G18U U24C | 0.642
C20A G39U | 0.329
C20A G39C | 0.393
C20A G39A | 0.347
U19A G45U | 0.41
U19A G45C | 0.405
U19A G45A | 0.354
U19C A26G | 0.242
U19C A26U | 0.492
U19C A26C | 0.367
C20A A42U | 0.386
C20A A42C | 0.335
C20A A42G | 0.341
U19G C38U | 0.364

Variant | self-cleavage
U19G C38A | 0.324
U19G C38G | 0.354
U19A C30A | 0.294
U19A C30U | 0.369
U19A C30G | 0.28
G18U U32G | 0.802
G18U U32A | 0.646
G18U U32C | 0.857
U19A A42C | 0.369
U19A A42G | 0.34
U19A A42U | 0.378
U19A G33C | 0.291
U19A G33U | 0.398
U19A G33A | 0.356
U19C G27U | 0.311
U19C G27C | 0.308
U19C G27A | 0.382
U19A G36C | 0.367
U19A G36U | 0.302
U19A G36A | 0.369
U19G G45U | 0.389
U19G G45C | 0.312
U19G G45A | 0.424
U19C G45U | 0.439

Variant | self-cleavage
U19C G45A | 0.384
U19C G45C | 0.519
U19G G31A | 0.553
U19G G31U | 0.451
U19G G31C | 0.431
U19C U32A | 0.551
U19C U32C | 0.565
U19C U32G | 0.642
U19C G33U | 0.792
U19C G33A | 0.579
U19C G33C | 0.38
U19G A34G | 0.345
U19G A34C | 0.349
U19G A34U | 0.289
C20A A40G | 0.326
C20A A40U | 0.382
C20A A40C | 0.33
U19C A42C | 0.237
U19C A42U | 0.212
U19C A42G | 0.279
C20A G36A | 0.33
C20A G36U | 0.306
C20A G36C | 0.313
U19C C38A | 0.414

Variant | self-cleavage
U19C C38G | 0.407
U19C C38U | 0.36
G18U U21G | 0.426
G18U U21A | 0.381
G18U U21C | 0.544
C20A A41G | 0.309
C20A A41C | 0.388
C20A A41U | 0.335
C20A G31C | 0.412
C20A G31U | 0.475
C20A G31A | 0.576
U19C U21A | 0.416
U19C U21G | 0.221
U19C U21C | 0.251
C20A U21C | 0.394
C20A U21A | 0.228
C20A U21G | 0.326
C20A A26C | 0.397
C20A A26U | 0.342
C20A A26G | 0.344
C20A C38A | 0.292
C20A C38G | 0.429
C20A C38U | 0.385
U19G G27C | 0.288

Variant | self-cleavage
U19G G27A | 0.301
U19G G27U | 0.292
U19G A37U | 0.339
U19G A37G | 0.3
U19G A37C | 0.331
U19C G35A | 0.64
U19C G35U | 0.465
U19C G35C | 0.492
U19G G39C | 0.297
U19G G39A | 0.378
U19G G39U | 0.305
U19A G31C | 0.384
U19A G31U | 0.402
U19A G31A | 0.41
U19A C38U | 0.358
U19A C38A | 0.313
U19A C38G | 0.365
C20A A37G | 0.441
C20A A37C | 0.417
C20A A37U | 0.353
C20A U28G | 0.552
C20A U28C | 0.487
C20A U28A | 0.435
U19C C29U | 0.491

Variant | self-cleavage
U19C C29G | 0.434
U19C C29A | 0.374
U19G U28A | 0.411
U19G U28G | 0.355
U19G U28C | 0.352
U19C A44U | 0.258
U19C A44C | 0.325
U19C A44G | 0.751
U19G U32A | 0.366
U19G U32G | 0.371
U19G U32C | 0.449
U19A A23G | 0.426
U19A A23U | 0.386
U19A A23C | 0.346
U19C A40C | 0.305
U19C A40G | 0.332
U19C A40U | 0.272
C20A G27C | 0.369
C20A G27A | 0.333
C20A G27U | 0.302
U19C C43U | 0.376
U19C C43A | 0.284
U19C C43G | 0.393
